Patent US20150086999

Target: Q13093
Test: estimated from residual CAM activity after 10 days at 4 C against enzyme concentration (dilution inactivation); self-association

B1: recombinant lipoprotein-associated phospholipase A2 (rLp-PLA2) expressed in HEK293 cells (protein)
chain: FDWQYINPVAHMKSSAWVNKIQVLMAAASFGQTKIPRGNGPYSVGCTDLMFDHTNKGTFLRLYYPSQDNDRLDTLWIPNKEYFWGLSKFLGTHWLMGNILRLLFGSMTTPANWNSPLRPGEKYPLVVFSHGLGAFRTLYSAIGIDLASHGFIVAAVEHRDRSASATYYFKDQSAAEIGDKSWLYLRTLKQEEETHIRNEQVRQRAKECSQALSLILDIDHGKPVKNALDLKFDMEQLKDSIDREKIAVIGHSFGGATVIQTLSEDQRFRCGIALDAWMFPLGDEVYSRIPQPLFFINSEYFQYPANIIKMKKCYSPDKERKMITIRGSVHQNFADFTFATGKIIGHMLKLKGDIDSNVAIDLSNKASLAFLQKHLGLHKDFDQWDCLIEGDDENLIPGTNINTTNQHIMLQNSSGIEKYN
  concentration at which half is monomer and half aggregate or oligomer: At the concentration at 2.5 µg/ml or 53 nM, roughly half of rLp-PLA2 is in monomer and half forms the aggregate or oligomer as estimated
